Three molecules from patent US20240034757A1 (OXFORD UNIVERSITY INNOVATION, published 2024) can be followed below.

The target of one test is T1, CXCL5_HUMAN (human, UniProt P42830 41-114).
T1 sequence: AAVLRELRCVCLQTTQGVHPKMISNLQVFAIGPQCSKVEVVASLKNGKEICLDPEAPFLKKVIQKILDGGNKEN
As to the kind of experiment: BLI. Background: In BLI a coated tip is dipped into the sample, and binding shifts an interference pattern.

In another test the target is CXCL12_HUMAN (human, UniProt P48061 22-89). As to the kind of experiment: BLI.
The target of a further test is T2, CXCL1_HUMAN (human, UniProt P09341 35-107).
T2 sequence: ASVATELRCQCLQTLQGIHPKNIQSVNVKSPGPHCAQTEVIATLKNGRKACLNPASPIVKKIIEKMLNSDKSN
As to the kind of experiment: BLI.

Test [1] has as its target T3, CXCL11_HUMAN (human, UniProt O14625 22-94).
T3 sequence: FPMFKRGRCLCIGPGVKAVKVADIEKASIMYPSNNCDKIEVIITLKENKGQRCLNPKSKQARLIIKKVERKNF
As to the kind of experiment: BLI.

Another test deals with T4, CXCL2_HUMAN (human, UniProt P19875 35-107).
T4 sequence: T2 sequence with S2P, V3L, P20L, N27K, R48Q, I58M, N68K, S69N, D70G
Description: BLI.

Test [2] addresses T5, CXCL9_HUMAN (human, UniProt Q07325 23-125).
T5 sequence: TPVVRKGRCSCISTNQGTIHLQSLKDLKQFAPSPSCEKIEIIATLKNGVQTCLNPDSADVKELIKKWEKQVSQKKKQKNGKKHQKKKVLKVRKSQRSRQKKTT
As to the kind of experiment: BLI.

Test [3] deals with T6, CXCL10_HUMAN (human, UniProt P02778 22-98).
T6 sequence: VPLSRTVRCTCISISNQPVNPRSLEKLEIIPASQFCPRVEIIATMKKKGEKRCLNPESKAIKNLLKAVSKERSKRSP
Description: BLI.

Test [4] concerns the target T7, CXCL6_HUMAN (human, UniProt P80162 38-114).
T7 sequence: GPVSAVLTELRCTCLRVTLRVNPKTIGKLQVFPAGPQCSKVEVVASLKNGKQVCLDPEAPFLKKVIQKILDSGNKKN
As to the kind of experiment: BLI.

Test [5] addresses T8, CXCL8_HUMAN (human, UniProt P10145 28-99).
T8 sequence: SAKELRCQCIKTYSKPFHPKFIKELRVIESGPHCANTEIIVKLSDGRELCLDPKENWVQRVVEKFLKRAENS
As to the kind of experiment: BLI.

Test [6] addresses T9, CXCL7_HUMAN (human, UniProt P02775 59-128).
T9 sequence: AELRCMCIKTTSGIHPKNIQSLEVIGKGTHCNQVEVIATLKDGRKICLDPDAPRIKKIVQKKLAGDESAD
Description: BLI.

For a further test, the target named is T10, CXCL3_HUMAN (human, UniProt P19876 35-107).
T10 sequence: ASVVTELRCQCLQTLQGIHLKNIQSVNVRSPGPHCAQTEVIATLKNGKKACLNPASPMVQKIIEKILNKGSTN
As to the kind of experiment: BLI.

Test [7] concerns the target T11, CXCL14_HUMAN (human, UniProt O95715 35-111).
T11 sequence: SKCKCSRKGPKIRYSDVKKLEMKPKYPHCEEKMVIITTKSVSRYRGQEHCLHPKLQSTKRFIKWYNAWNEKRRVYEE
As to the kind of experiment: BLI.

Test [8] deals with T12, CXCL4_HUMAN (human, UniProt P02776 32-101).
T12 sequence: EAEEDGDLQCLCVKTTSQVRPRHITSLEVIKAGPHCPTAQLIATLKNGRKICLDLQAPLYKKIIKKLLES
Description: BLI.

In the next test the target is T13, CXCL13_HUMAN (human, UniProt O43927 23-109).
T13 sequence: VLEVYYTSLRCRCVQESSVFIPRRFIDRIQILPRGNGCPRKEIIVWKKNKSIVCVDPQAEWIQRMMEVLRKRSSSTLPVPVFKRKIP
Description: BLI.

For a further test, the target named is T14, CCL5_HUMAN (human, UniProt P13501 24-91).
T14 sequence: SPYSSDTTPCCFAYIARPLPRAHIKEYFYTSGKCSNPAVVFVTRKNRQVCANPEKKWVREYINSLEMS
Description: BLI.

The target in the next test is T15, CCL3L1_HUMAN (human, UniProt P16619 24-93).
T15 sequence: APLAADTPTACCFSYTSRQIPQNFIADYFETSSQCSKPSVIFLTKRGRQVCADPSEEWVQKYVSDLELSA
As to the kind of experiment: BLI.

Test [9] has as its target T3, CXCL11_HUMAN. As to the kind of experiment: BLI [Cont.) C].
Test [10] concerns the target T5, CXCL9_HUMAN. As to the kind of experiment: BLI [Cont.) C].
For test [11], the target named is T6, CXCL10_HUMAN. As to the kind of experiment: BLI [Cont.) C].
Test [12] has as its target T7, CXCL6_HUMAN. As to the kind of experiment: BLI [Cont.) C].
Test [13] addresses T8, CXCL8_HUMAN. As to the kind of experiment: BLI [Cont.) C].
Test [14] addresses T9, CXCL7_HUMAN. Description: BLI [Cont.) C].
Test [15] addresses T11, CXCL14_HUMAN. Description: BLI [Cont.) C].
Test [16] concerns the target T12, CXCL4_HUMAN. As to the kind of experiment: BLI [Cont.) C].

Residue numbers refer to the chain shown, from its start. Names may count otherwise.

Chain of CXCL12_HUMAN (P48061 22-89 limits assumed): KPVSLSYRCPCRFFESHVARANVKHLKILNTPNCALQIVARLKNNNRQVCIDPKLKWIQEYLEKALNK

B1: P1156:G4S:P991 (designed binder)
chain: ADDDNELFTVQYCGMNCTKDEGGTWTGCTGKKEGCKCYHESGKNYGLCLSTEYTDFSQYGNPSDSEIEAAKPKRSDTLSHGGGGSENGEGTTQPDYDNSTDYYNYEDFKCTCPAPHLNNTNGTVMKPIGCYYTCNVTRCTAPDTYPCYNLTEHQAKNLTTSPTTLCAVGNCDHGICVPNGTKELCFKAPNLEE
notes: also called two-warhead evasin
On to B1, for which the “RT” value in the test with CXCL5_HUMAN turned out to be 3.08 min; in the test with CXCL1_HUMAN, 30.3 min; with CXCL2_HUMAN, 2.89 min; with CXCL8_HUMAN [5], 71.3 min; in the test with CXCL3_HUMAN, 3.61 min; with CCL5_HUMAN it was 103 min. Besides, the “RT” value with CCL3L1_HUMAN is 34.7 min. Moreover, the binding result with CXCL12_HUMAN, in the test with CXCL11_HUMAN [1], with CXCL9_HUMAN [2], in the test with CXCL10_HUMAN [3], in the test with CXCL6_HUMAN [4] and with CXCL7_HUMAN [6] was “no binding” throughout. Also, the binding result with CXCL14_HUMAN [7], with CXCL4_HUMAN [8] and with CXCL13_HUMAN was “no binding” throughout. In addition, the Kd with CXCL1_HUMAN worked out at 2.72 nM; with CXCL8_HUMAN [5] it was 1.5 nM; in the test with CXCL3_HUMAN, 61.4 nM; with CCL5_HUMAN it was 0.754 nM; with CCL3L1_HUMAN it was 3.09 nM.

B2: P991:G4S:P1156 (designed binder)
chain: ENGEGTTQPDYDNSTDYYNYEDFKCTCPAPHLNNTNGTVMKPIGCYYTCNVTRCTAPDTYPCYNLTEHQAKNLTTSPTTLCAVGNCDHGICVPNGTKELCFKAPNLEEGGGGSADDDNELFTVQYCGMNCTKDEGGTWTGCTGKKEGCKCYHESGKNYGLCLSTEYTDFSQYGNPSDSEIEAAKPKRSDTLSH
B2: the “RT” value came to 2.32 min with CXCL5_HUMAN; 21 min in the test with CXCL1_HUMAN; 2.32 min with CXCL2_HUMAN; 36.8 min in the test with CXCL8_HUMAN [5]; 3.28 min with CXCL3_HUMAN; 92 min with CCL5_HUMAN. In addition, the “RT” value with CCL3L1_HUMAN is 43.8 min. The binding result in the test with CXCL12_HUMAN, with CXCL11_HUMAN [1], with CXCL9_HUMAN [2], with CXCL10_HUMAN [3], with CXCL6_HUMAN [4] and with CXCL7_HUMAN [6] was “no binding” in each case. In addition, the binding result with CXCL14_HUMAN [7], in the test with CXCL4_HUMAN [8] and with CXCL13_HUMAN was “no binding” throughout. Moreover, the Kd in the test with CXCL1_HUMAN was 5.08 nM; with CXCL8_HUMAN [5], 3.56 nM; in the test with CXCL3_HUMAN, 89.9 nM; with CCL5_HUMAN, 0.947 nM; with CCL3L1_HUMAN, 2.91 nM.

B3: P1243:G4S:P1156 (designed binder)
chain: RNHTEDNSTEYYDYEEARCACPARHLNNTNGTVLKLLGCHYFCNGTLCTAPDGYPCYNLTAQQVRTLTTYPNTSCAVGVCMKGTCVKNGTMEQCFKTPGGGGSADDDNELFTVQYCGMNCTKDEGGTWTGCTGKKEGCKCYHESGKNYGLCLSTEYTDFSQYGNPSDSEIEAAKPKRSDTLSH
As to B3, the binding result with CXCL11_HUMAN [9], with CXCL9_HUMAN [10], with CXCL10_HUMAN [11], with CXCL6_HUMAN [12], with CXCL7_HUMAN [14] and in the test with CXCL14_HUMAN [15] was “no binding (tested: 300 nM)” throughout. For the same molecule, the binding result with CXCL4_HUMAN [16] is “no binding (tested: 300 nM)”. The affinity in the test with CXCL8_HUMAN [13], expressed as Kd, was 7.63 nM.

A word on the Kd: it is the free concentration of one partner at which half of the binding sites on the other are occupied at equilibrium, for simple one-to-one binding. High values mean a looser complex, low ones a tighter complex.
